# What was measured:
# HeLa Kyoto [1] = assay: solubility in G1/S (NP-40 vs SDS abundance) (log2 ratio); higher = more soluble; conditions: cell cycle stage: G1/S
# HeLa Kyoto [2] = assay: melting temperature (median over replicates), in situ; higher = more thermally stable
# HeLa Kyoto [3] = assay: solubility change mitosis vs G1/S (difference of NP-40 vs SDS log2 ratios) (log2 ratio difference); higher = more soluble in mitosis
# HeLa Kyoto [4] = assay: thermal stability score vs G1/S (z-score of summed log2 fold changes over temperatures); higher = more thermally stable than in G1/S
# [5] = cell cycle stage: early G1 (4.5 h after nocodazole release)
# 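Throughout, for melting temperature (median over replicates), in situ: HeLa Kyoto cells synchronized by double thymidine or nocodazole block, proteins quantified by TMT10plex mass spectrometry, three independent biological replicates.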
# 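Throughout, for solubility change mitosis vs G1/S (difference of NP-40 vs SDS log2 ratios): synchronized HeLa Kyoto cells (double thymidine block for G1/S, nocodazole release for mitosis), protein amounts in NP-40 versus SDS lysates quantified by mass spectrometry, three biological replicates.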
# 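Throughout, for solubility in G1/S (NP-40 vs SDS abundance): HeLa Kyoto cells arrested at G1/S by double thymidine block, proteins quantified by TMT10plex mass spectrometry in mild NP-40 versus SDS extracts, three biological replicates.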
# 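Throughout, for thermal stability score vs G1/S (z-score of summed log2 fold changes over temperatures): synchronized HeLa Kyoto cells, proteins quantified by TMT10plex mass spectrometry, three biological replicates, mitosis taken 0.5 h after nocodazole release, G1/S directly after double thymidine block.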
Sequence,solubility in G1/S (log2) (HeLa Kyoto [1]),melting temperature (HeLa Kyoto [2]; cell cycle stage: G1/S) [°C],melting temperature (HeLa Kyoto [2]; cell cycle stage: mitosis) [°C],solubility change mitosis (log2) (HeLa Kyoto [3]),thermal stability score (HeLa Kyoto [4]; [5]),thermal stability score (HeLa Kyoto [4]; cell cycle stage: mitosis)
MPSALAIFTCRPNSHPFQERHVYLDEPIKIGRSVARCRPAQNNATFDCKVLSRNHALVWFDHKTGKFYLQDTKSSNGTFINSQRLSRGSEESPPCEILSGDIIQFGVDVTENTRKVTHGCIVSTIKLFLPDGMEARLRSDVIHAPLPSPVDKVAANTPSMYSQELFQLSQYLQEALHREQMLEQKLATLQRLLAITQEASDTSWQALIDEDRLLSRLEVMGNQLQACSKNQTEDSLRKELIALQEDKHNYETTAKESLRRVLQEKIEVVRKLSEVERSLSNTEDECTHLKEMNERTQEELRELANKYNGAVNEIKDLSDKLKVAEGKQEEIQQKGQAEKKELQHKIDEMEEKEQELQAKIEALQADNDFTNERLTALQVRLEHLQEKTLKECSSLEHLLSKSGGDCTFIHQFIECQKKLIVEGHLTKAVEETKLSKENQTRAKESDFSDTLSPSKEKSSDDTTDAQMDEQDLNEPLAKVSLLKDDLQGAQSEIEAKQEIQHLRKELIEAQELARTSKQKCFELQALLEEERKAYRNQVEESTKQIQVLQAQLQRLHIDTENLREEKDSEITSTRDELLSARDEILLLHQAAAKVASERDTDIASLQEELKKVRAELERWRKAASEYEKEITSLQNSFQLRCQQCEDQQREEATRLQGELEKLRKEWNALETECHSLKRENVLLSSELQRQEKELHNSQKQSLELTSDLSILQMSRKELENQVGSLKEQHLRDSADLKTLLSKAENQAKDVQKEYEKTQTVLSELKLKFEMTEQEKQSITDELKQCKNNLKLLREKGNNKPWPWMPMLAALVAVTAIVLYVPGLARASP [SLMAP],0.152,50.6,51.2,0.0117,0.404,0.436
MPSKFSCRQLREAGQCFESFLVVRGLDMETDRERLRTIYNRDFKISFGTPAPGFSSMLYGMKIANLAYVTKTRVRFFRLDRWADVRFPEKRRMKLGSDISKHHKSLLAKIFYDRAEYLHGKHGVDVEVQGPHEARDGQLLIRLDLNRKEVLTLRLRNGGTQSVTLTHLFPLCRTPQFAFYNEDQELPCPLGPGECYELHVHCKTSFVGYFPATVLWELLGPGESGSEGAGTFYIARFLAAVAHSPLAAQLKPMTPFKRTRITGNPVVTNRIEEGERPDRAKGYDLELSMALGTYYPPPRLRQLLPMLLQGTSIFTAPKEIAEIKAQLETALKWRNYEVKLRLLLHLEELQMEHDIRHYDLESVPMTWDPVDQNPRLLTLEVPGVTESRPSVLRGDHLFALLSSETHQEDPITYKGFVHKVELDRVKLSFSMSLLSRFVDGLTFKVNFTFNRQPLRVQHRALELTGRWLLWPMLFPVAPRDVPLLPSDVKLKLYDRSLESNPEQLQAMRHIVTGTTRPAPYIIFGPPGTGKTVTLVEAIKQVVKHLPKAHILACAPSNSGADLLCQRLRVHLPSSIYRLLAPSRDIRMVPEDIKPCCNWDAKKGEYVFPAKKKLQEYRVLITTLITAGRLVSAQFPIDHFTHIFIDEAGHCMEPESLVAIAGLMEVKETGDPGGQLVLAGDPRQLGPVLRSPLTQKHGLGYSLLERLLTYNSLYKKGPDGYDPQFITKLLRNYRSHPTILDIPNQLYYEGELQACADVVDRERFCRWAGLPRQGFPIIFHGVMGKDEREGNSPSFFNPEEAATVTSYLKLLLAPSSKKGKARLSPRSVGVISPYRKQVEKIRYCITKLDRELRGLDDIKDLKVGSVEEFQGQERSVILISTVRSSQSFVQLDLDFNLGFLKNPKRFNVAVTRAKALLIIVGNPLLLGHDPDWKVFLEFCKENGGYTGCPFPAKLDLQQGQNLLQGLSKLSPSTSGPHSHDYLPQEREGEGGLSLQVEPEWRNEL [MOV10],-0.355,52.9,51.1,-0.141,-0.801,-2.06
MPSKKKKYNARFPPARIKKIMQTDEEIGKVAAAVPVIISRALELFLESLLKKACQVTQSRNAKTMTTSHLKQCIELEQQFDFLKDLVASVPDMQGDGEDNHMDGDKGARRGRKPGSGGRKNGGMGTKSKDKKLSGTDSEQEDESEDTDTDGEEETSQPPPQASHPSAHFQSPPTPFLPFASTLPLPPAPPGPSAPDEEDEEDYDS [DRAP1],0.748,56.9,55.7,0.215,-2.19,-2.89
MPSSLLGAAMPASTSAAALQEALENAGRLIDRQLQEDRMYPDLSELLMVSAPNNPTVSGMSDMDYPLQGPGLLSVPNLPEISSIRRVPLPPELVEQFGHMQCNCMMGVFPPISRAWLTIDSDIFMWNYEDGGDLAYFDGLSETILAVGLVKPKAGIFQPHVRHLLVLATPVDIVILGLSYANLQTGSGVLNDSLSGGMQLLPDPLYSLPTDNTYLLTITSTDNGRIFLAGKDGCLYEVAYQAEAGWFSQRCRKINHSKSSLSFLVPSLLQFTFSEDDPILQIAIDNSRNILYTRSEKGVIQVYDLGQDGQGMSRVASVSQNAIVSAAGNIARTIDRSVFKPIVQIAVIENSESLDCQLLAVTHAGVRLYFSTCPFRQPLARPNTLTLVHVRLPPGFSASSTVEKPSKVHRALYSKGILLMAASENEDNDILWCVNHDTFPFQKPMMETQMTAGVDGHSWALSAIDELKVDKIITPLNKDHIPITDSPVVVQQHMLPPKKFVLLSAQGSLMFHKLRPVDQLRHLLVSNVGGDGEEIERFFKLHQEDQACATCLILACSTAACDREVSAWATRAFFRYGGEAQMRFPTTLPPPSNVGPILGSPVYSSSPVPSGSPYPNPSFLGTPSHGIQPPAMSTPVCALGNPATQATNMSCVTGPEIVYSGKHNGICIYFSRIMGNIWDASLVVERIFKSGNREITAIESSVPCQLLESVLQELKGLQEFLDRNSQFAGGPLGNPNTTAKVQQRLIGFMRPENGNPQQMQQELQRKFHEAQLSEKISLQAIQQLVRKSYQALALWKLLCEHQFTIIVAELQKELQEQLKITTFKDLVIRDKELTGALIASLINCYIRDNAAVDGISLHLQDICPLLYSTDDAICSKANELLQRSRQVQNKTEKERMLRESLKEYQKISNQVDLSNVCAQYRQVRFYEGVVELSLTAAEKKDPQGLGLHFYKHGEPEEDIVGLQAFQERLNSYKCITDTLQELVNQSKAAPQSPSVPKKPGPPVLSSDPNMLSNEEAGHHFEQMLKLSQRSKDELFSIALYNWLIQVDLADKLLQVASPFLEPHLVRMAKVDQNRVRYMDLLWRYYEKNRSFSNAARVLSRLADMHSTEISLQQRLEYIARAILSAKSSTAISSIAADGEFLHELEEKMEVARIQLQIQETLQRQYSHHSSVQDAVSQLDSELMDITKLYGEFADPFKLAECKLAIIHCAGYSDPILVQTLWQDIIEKELSDSVTLSSSDRMHALSLKIVLLGKIYAGTPRFFPLDFIVQFLEQQVCTLNWDVGFVIQTMNEIGVPLPRLLEVYDQLFKSRDPFWNRMKKPLHLLDCIHVLLIRYVENPSQVLNCERRRFTNLCLDAVCGYLVELQSMSSSVAVQAITGNFKSLQAKLERLH [NUP155],-0.247,50.6,48.8,-0.126,-2.62,-3.4
MPTESASCSTARQTKQKRKSHSLSIRRTNSSEQERTGLPRDMLEGQDSKLPSSVRSTLLELFGQIEREFENLYIENLELRREIDTLNERLAAEGQAIDGAELSKGQLKTKASHSTSQLSQKLKTTYKASTSKIVSSFKTTTSRAACQLVKEYIGHRDGIWDVSVAKTQPVVLGTASADHTALLWSIETGKCLVKYAGHVGSVNSIKFHPSEQLALTASGDQTAHIWRYAVQLPTPQPVADTSISGEDEVECSDKDEPDLDGDVSSDCPTIRVPLTSLKSHQGVVIASDWLVGGKQAVTASWDRTANLYDVETSELVHSLTGHDQELTHCCTHPTQRLVVTSSRDTTFRLWDFRDPSIHSVNVFQGHTDTVTSAVFTVGDNVVSGSDDRTVKVWDLKNMRSPIATIRTDSAINRINVCVGQKIIALPHDNRQVRLFDMSGVRLARLPRSSRQGHRRMVCCSAWSEDHPVCNLFTCGFDRQAIGWNINIPALLQEK [WDR37],0.0178,53.3,–,-0.117,-0.8,-0.627

# From the supplement of paper PMC5998384
